Results reported in paper PMC6886524 (Journal of structural and functional genomics, 2015).

Molecular target: Urease beta subunit (urea amidohydrolase) (UreB) of H. pylori (H. pylori, UniProt P69996 1-569)
Experiment: crystal structure

Sequence of Urease beta subunit (urea amidohydrolase) (UreB) of H. pylori (P69996 whole entry): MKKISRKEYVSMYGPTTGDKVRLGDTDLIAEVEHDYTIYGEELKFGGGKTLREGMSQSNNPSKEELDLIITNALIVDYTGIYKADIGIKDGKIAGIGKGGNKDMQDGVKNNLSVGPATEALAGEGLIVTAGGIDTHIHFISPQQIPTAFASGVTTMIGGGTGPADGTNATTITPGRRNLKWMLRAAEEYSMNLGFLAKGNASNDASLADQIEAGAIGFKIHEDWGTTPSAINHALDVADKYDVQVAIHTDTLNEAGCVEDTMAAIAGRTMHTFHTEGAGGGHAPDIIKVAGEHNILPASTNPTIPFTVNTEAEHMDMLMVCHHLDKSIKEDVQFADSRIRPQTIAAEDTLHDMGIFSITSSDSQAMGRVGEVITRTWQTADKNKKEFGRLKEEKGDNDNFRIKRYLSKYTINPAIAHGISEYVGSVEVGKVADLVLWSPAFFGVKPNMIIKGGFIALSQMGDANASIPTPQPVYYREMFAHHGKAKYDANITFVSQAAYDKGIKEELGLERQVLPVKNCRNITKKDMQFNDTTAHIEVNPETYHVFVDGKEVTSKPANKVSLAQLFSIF

B1: Urease alpha subunit (UreA) (urea amidohydrolase) of H. pylori (natural protein)
chain: MKLTPKELDKLMLHYAGELAKKRKEKGIKLNYVEAVALISAHIMEEARAGKKTAAELMQEGRTLLKPDDVMDGVASMIHEVGIEAMFPDGTKLVTVHTPIEANGKLVPGELFLKNEDITINEGKKAVSVKVKNVGDRPVQIGSHFHFFEVNRCLDFDREKTFGKRLDIASGTAVRFEPGEEKSVELIDIGGNRRIFGFNALVDRQADNESKKIALHRAKERGFHGAKSDDNYVKTIKE
binding result: binds
